# Reference: the nanobody polyreactivity screen of Harvey et al. (2022)
# Assay: yeast display, Sf9 membrane polyspecificity reagent, FACS + sequencing; frameworks hold sequencing errors
# Procedure, shortened: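 After 36–48 hours of galactose induction, yeast (Saccharomyces cerevisiae BJ5465) displaying a synthetic nanobody library were stained at 4 °C for 1 hour with 10% biotinylated, detergent-solubilized Sf9 membrane reagent. Streptavidin microbeads enriched the stained cells before FACS sorting into low and high (top ~1%) gates on anti-HA and streptavidin fluorescence. Each clone's polyreactivity label reflects its gate of origin.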
row,Sequence,polyreactivity (PSR sort gate)
1,QVQLVESGGGLVQAGGSLRLSCAASGGIFIRYAMGSYRQAPGKERELVAAITQSGAGTNYADSVKGRFTISRDNAKNTVYLQMNSLKPEDTAVYYCAATGLPGYYAYDYWGQGTQVTVSS,low polyreactivity
2,QVQLVESGGGLVQAGGSLRLSCAASGFTSRTYAMGWYRQAPGKERELVAAITFSGGSTYYADSVKGRFTISRDNAKNTVYLQMNSLKPEDTAVYYCARDGLWYNAIWEYDYWGQGTQVTVSS,high polyreactivity
3,QVQLVESGGGLVQAGGSLRLSCAASGFTFGYYAMGWYRQAPGKERELVAAITWSGGRTYYADSVKGRFTISRDNAKNTVYLQMNSLKPEDTAVYYCAVETLWQGSEYWGQGTQVTVSS,low polyreactivity
4,QVQLVESCGGLVQAGGSLRLSCAASGSTFAVNVMGWYRQAPGKERELDATITYRDGRTYYADSVKGRFTISRDNAKNTVYVQMNSLKPEVTALYYCAADWYTTYDYWGQGTQVTVSS,low polyreactivity
5,QVQLVDTGGGLVQAGGSLRLSCAASGLTIYGNAMGWSRQAPGKERELVAAISSSGGTTYYADSVKGRFTISRDNSKNTVYLQMNSLKPEDTAVYYCAARPSGGYESTRTRDYWGQGTQVTLSS,low polyreactivity
6,QVQLVESGGGLVQAGGSLRLSCAASGGTFPGYTMGWNRQAPGKERELVAAISGSGVSTYYADSVKGRFTISRDNAKNTVYLQMNSLKPEDTAVYYCARTYRSYSRYPFVRFDYWGQGTQVTVSS,high polyreactivity
7,QVQLVESGGGLVQAGGSLRLSCADSGSISRNAMGWYRQAPGKERELVAGISQSGGRTYYADSVKGRFTISRDNAKKTVYLQMNSLKPEDSAVYYCNADPRRGPGSVSSVRNNYWGQGTQVTVSS,high polyreactivity
8,QVQLVESGGGLVQAGCSLRLSCAASGSIFSAYSMGWYRPAPGKEREFVAAITRRGGNTYYADSVKGRFTISRDNAKNTVYLQMKSLKPEDTAVYYCAASYNGLWHGDYDYWGQGTQVTVSS,low polyreactivity
9,QVQLVESGGGLVQAGGSLRLSCAASGSIFYDYAMGCYRQAPGKERELVDRISSGGSTYYADSVKGRFTISRDNAKNTVYLQMNSLKPEDSAVYYCNAGVEFAASLYYSDNYDYWGQGTQVTVSS,low polyreactivity
10,QVQLVESGGGLVQAGGSLRLSCAASGRTFDDYTMGWYRQAPGKERELVAAITGGGSTNYADSVKGRFTISRDNAKNTVYLQMNSLKPEDTAVYYCNAEYSRSYRYDEGYWGQGTQVTVSS,low polyreactivity
11,QVQLVESGGGLVQAGGSLRLSCAASGRTFVFYGMGWYRQAPGKEREFVAAITRRGGSTYYADSVKGRFTISRDNAKNTVYLQMNSLKPEDTAVYYCAAGYSSRYRGGLDYWGQGTQVTVSS,high polyreactivity
12,QVQLVESGGGLVQAGGSLLLSCAASGSTLFLYAMGWYRQAPGKERELVAGITYSGSTYADSVKGRFTISRDNAKNTVYFQMNSLKPEDTAVYYCAKDGYWNEEYSVGMDYWGQGTQVTVSS,low polyreactivity
13,QVQLVESGGGLVQAGGSLRLSCAASGRTFYRYVMAWYRQAPRKERELVADITRSGGSTYYADSVKGRFTISRDNAKNTVYLQMNSLKPEDTAVYYCNKRYRVWFDYWGQGTQVTVSS,high polyreactivity
14,QVQLVESGGGLVQAGGSLRLSCAASGSISSAYGMGWYIQAPGKERELVATITSGGSTNYADSVKGRFTISRDNAKNTVYLQMNSLTPEDTAVYYCAVDRYALYSGGDYWGQGTQVTVSS,low polyreactivity
15,QVQLLESGGGLVQAGGSLRLSCAASGRTFRSYAMGWYRQAPGKERELVAAISRSDGSTYYAESVKVRFTISRDNAKNTVYLQMNSLKPEDTAVYYCARSLYASSYLMYYWGQGTQVTVSS,high polyreactivity
16,QVQLVESGGGLVQAGGSLRLSCAASGLIFYHNARGWYRQAPGKERELVAAITASGGSTYYADSVKGRFTISRDNAKNTVYFQMNSLKPEDTAVYYCAADGPLDSDLDYWGQGTQVTVSS,low polyreactivity
17,QVQLVESGGGLVQAGGSLRLSCAASGRTFYFYTMGWYRQAPGKERELVAAITLSGVSTYYADSVKGRFTISRDNAKITVYLQMNSLKPEDTAVYYCNAVYIRPGYRRYDYWGQGTQVTVSS,high polyreactivity
18,QVQLVESGGGLVQAGGSLRLSCAASGSTFRSYAMGWNRQAPGKERELVAAISGRGGNTYYADSVKGRFTISRDNAKNTVYLLMNSLKPEDTAVYYCARKTVYYGSDYWGQGTQVTVSS,high polyreactivity
19,QVQLVESGGGLVQAGGSLRFSCAASGRTLGYYTMGWYRQAPGKESELVATITPGGSTNYADSVKGRFTISRDHAKNTVYLQMNRLKPEDTAVYYCAKKKRRGYGYDYWGQGTQVTVSS,high polyreactivity
20,QVKLVESGGGLVQAGCSLRLSCAASGRIYGGYTMGRYRPAPGKERELVAAITGSGGRTYFADSVKGRFTISRDNAKNTVYLHMNILTPEDTAVYYCNTVYPYRYYWGHGTQVTVSS,high polyreactivity
21,QVQLVESGGGLVQAGGSLRLICAASGRIFVKYAIGWYRQAPGKERELVASITSGGRTNYADSVKGRFTISPDIAKNTVYLQMNSLKPEDTAVYYCAAVWRTASTQYYYWGQGTQVTVSS,high polyreactivity

row,Sequence,polyreactivity (PSR sort gate)
1,QVQLVESGGGLVQAGGSLRLSCAASGIIFGTYDMGWNRQAPGKERELVAANTSGTSTNYADSVKGRFTISRDNAMNTVYLQMNSLKPEDTAVYYCAADVYLYYPYFGHRRYNYWGQGTQVTVSS,high polyreactivity
2,QVQLVESGGGLVQAGGILRLSCAASGLIFIGYAMGWYRQAPGKERELVASIRGVGSTNYADSVKGRFTISRDNAKNTVYLQMNSLKPEDTAVYYCATSVDRALYTQTRGDYDYWGQGTQVTVSS,low polyreactivity
3,QVQLVESGGGLVQAGGSLRLSCAASGRIFTYYAMGWYRQAPGKERELVAAITWSGTGTYYADSVKGRFTISRDNAKNTVYLQMNSLKPEDTAVYYCNRRHALASSYYYWGQGTQVTVSS,low polyreactivity
4,QVQLVESGGGLVQAGGSLRLSCAASGLTFFRNAMGWYRQAPGKEREFVAGITSTDGSTYYADSVKGRFTISRDNAKNTVYLQMNSLKPEDTAVYYCAAAYRVRGRTYDAWGQGTQVTVSS,high polyreactivity
5,QLQLVESGGGLVQAGGSLRLSSAASGSIFIYYAMGWYRQAAGKERELVAAISYSDGDTYYADSVKGRFTISRDNAKNTVYLQMNSLKPEDTAVYYCAAEVPQYYDVGWEDYWGQGTQVTVSS,high polyreactivity
6,QVQLVESGGGLVQAGGSLRLSCAASGSTFDANAMGWYRQAPGKERELVAAISYSDGTTYYADSVKGRFTISRDNAKNTVYLQMNSLKPEDTAVYYCAAELFTYDGEEDYWGQGTQVTVSS,high polyreactivity
7,QVQLVESGGGLVQAGGSLRLSCAASGFTIRSYVMGWYRQAPGKERELVAAIRRSGGSTYYADSVKGRFTISRDNAKNTVYLHMNSMKPEDTAVYYCAAKAYTYYARIGFDYWGQGSQVTVSS,high polyreactivity
8,QVQLVESGGGLVQAGGSLRLSCAASGFIFATYGMGWYRQAPGKERELVATITSGGRTYYADSVKGRFTISRDNAKNTVYLQMNSLKPDDTAVYYCARASRRYWSMDYWGQGTQVSVSS,high polyreactivity
9,QVQLVESGGGLVQAGGSLRLSCAASGSTFGNYAMGWYRQAPGKEMELVAAISTSGDSTYYADSVKGRFTISRDNAKYTVYLQMNSLKPEDSAVYYCKARGIATGNRHEYWGQGTQVTVSS,low polyreactivity
10,QVQLVESGGGLVQAGGSLRLSCAASGSTFREYAMGWYIQAPGKERELVAAITSRGGSTYYADSVKGRFTISRDNAKNTVYLQMNSLKPEDTAVYYCAADHGTKAEYYYWGQRTQVTVSS,high polyreactivity
11,QVQLVESGGGLVQAGGSLRISCAASGSIFHDNAMGWYRQAPGKERELVAASTTSGGNTYYADSVKGRFTISRDNAKNTVYLLMNSLKPEDTAVYYCAAGQSVFASWLDNGWSAYTYYYWGQGTQVTVSS,low polyreactivity
12,QVQLVESGGGLVQAGGSLRLSCAASGRTFRGNAMGWYRPAPGKERELVAAITTAGGTYYADSVKGRFTISRDNAKNTVYLQMNSLKPEDTAVYYCAKLSHRGQSTGVDYWGQGTQVTVSS,low polyreactivity
13,QVQLVESGGGLVQAGGSLRLSCAASGSIFLTYTMGWYRQAPGKERELVAGISSRGGGTYYADSVKGRFTISRDNAKNTVYLQMNSLKPEDTAVYYCAAAIGYPHYWGRRKFYYWGQGTQVTVSS,low polyreactivity
14,QVQLVESGGGLVQAGGSLRLSCAASGIIFGYYAMGWYRQAPAKERELVAAISQSGGDTYYADSVKGRYTISRDLAKNTVYLQMNSVKPEDTAVYYCAASVWYYPMDYWGQGTHVTVSS,low polyreactivity
15,QVQLVESGGGLVQAGGSLRLSCAASGLTFVRYAMGWYRQAPGKERELVAAITTRGGSTYYADSVKGRFTISRDNAKNTVYLQMNSLKPEDTAVFYCNADRVTSSSVRYDYWGQGTQVTVSS,high polyreactivity
16,QVQLVESGGGLVQAGGSLRLSCAASGRTFRWYAMGWYRKAPGKEWELVAAISYRGGSTYADSVKGRFTISRDNEKNTVNLQMNSLKPEDTAVYYCAAKYYDYGPYYYWGQGTQETVSS,high polyreactivity
17,QVQLVESGGGLVQAGGSLRLSCAASGNIFTGNDMGWYRQAPGKERELVAAISKRGGSTFYADSVKGRFTISRDNAKNTVYLQMNSLKPEDTEGYYCNALRRGVRDPYGYWGQGTQVTVSS,high polyreactivity
18,QVKRVESGGVLVQAGGSLRLSCAASGFIFLLNDMGWYRQAHGKERDLVAAISRGGGSTYYADSVKGRFTISRDNAKNTVYLQMNSLKPEDTAVYYCAAKPGKTPLTGHRGPYDTGYGYCGQGTQVTVSS,low polyreactivity
19,QVQLVESGGGLVQAGGSLRLSCAASGITFQRNAMGWYRQAPGKERELVAVITSIGGRTYYADSVKGRFTISRDNAKNTVYLQMNSLKPEDTAVYYCNAASATRSADWYDYDYWGQGTQVTVSS,high polyreactivity
20,QVQLVESGGGLVQAGGSLRLSCAASGFTFRSNMGWYRQAPGKEREFVAAITKSGGSTYYADSVKGRFTISRDNAKNTVYLQMNSLKPEDTAVYYCAARARYTTGYRIIYDYWGQGSQVTVSS,high polyreactivity
